In the supplement of paper PMC10567573:

B1: HDAC6 (parent)
chain: QYMNEGELRVLADTYDSVYLHPNS

Variants of: B1
Assay: protein stability index of a GFP-peptide fusion (GPS, HEK-293T) (PSI 1-6); higher = more stable
Conditions: c terminus: a fixed tail appended
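Note: lentivirally expressed fusions sorted by FACS into six bins by GFP to DsRed ratio, PSI derived from sequencing read proportions per bin multiplied by bin number.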

Protein stability index of substitutions, site by site:
R9: K 1.69; E 2.7; Q 2.65; G 2.18; Y 1.87; H 3.19; I 2.13; T 2.14; D 2; S 2.05; L 1.6; W 1.23; P 3.26; F 3.31; M 1.46
L20: H 3; V 2.22; G 2.14; Y 2.38; N 2.42; Q 2.58; S 3.32; A 2.54; E 2.26; F 2; K 1.87; W 1.67; D 3.27; I 1.39; P 2.68
M3: V 3.46; Y 2.56; C 3.07; R 3.65; A 3.17; N 3.41; T 2.99; Q 3.73; I 3.39; D 4.19; F 2.15; P 4.02; K 3.39; E 3.88; L 2.38; W 2.29
S24: M 1.57; G 2.24; F 1.58; T 1.52; C 1.64; V 1.74; Y 1.41; I 3.21; A 1.44; D 2.58; N 2.04; H 1.61; L 1.52; W 1.24
D13: N 2.23; I 2.2; T 2.08; Q 1.57; W 1.37; C 1.2; S 1.9; R 1.27; K 1.16; P 1.94; H 1.77; G 2.86; L 1.45
N23: H 1.94; C 1.99; V 2.03; W 1.46; E 2.69; P 1.57; S 2.34; L 1.6; M 1.23; F 1.96; A 1.43; K 2.36; Q 1.92; D 1.8; Y 1.73
L11: H 3.13; P 3.49; W 2.64; I 1.78; A 1.83; Q 2.32; Y 2.14; E 2.36; M 2.98; N 2.32; T 2; K 3.03; G 2.46; D 3.01
E7: P 2.64; Y 1.44; G 3.04; N 1.72; T 2.62; M 2.81; W 1.72; R 1.55; Q 1.66; S 2.04; L 2.69; I 1.81
L8: Q 2.66; N 2.62; S 2.55; R 2.94; C 2.33; G 3.36; H 2.45; Y 2.96; W 1.33; M 1.85; A 2.53; I 2.86; F 1.52; K 3; V 3.68; P 3.84
V18: C 2.17; M 2.25; R 2.63; W 2.1; K 2.63; Q 3.02; S 2.88; T 1.77; A 2.56; H 2.68; G 2.6; D 2.87; F 2.23
N4: C 2.08; L 1.55; P 2.81; R 2.97; E 3.02; T 2.16; A 1.8; H 2.23; Q 2.19; K 2.2; G 1.89; I 2.49; M 2.76; V 1.68; S 2.05
V10: Y 2.95; T 2.18; F 2.69; E 2.46; P 3.53; R 1.92; A 1.79; C 2.51; W 2.22; M 2.08; D 3.61; N 2.15
S17: H 2.07; F 2.53; Y 1.47; G 2.05; K 1.78; T 2.37; L 2.02; E 2.99; C 2.46; I 2.32; N 2.08; Q 2.5; M 1.95; R 2.18
H21: D 1.84; N 2.21; P 1.85; I 2.25; E 2.33; K 1.92; L 1.71; G 1.64; M 1.47; C 3.56; A 1.43; Y 2.18; F 3.64; S 1.55
A12: H 2.31; D 1.57; K 1.98; M 3.21; Y 2.1; G 1.68; E 2.36; N 1.92; W 1.02; Q 2.04; T 2.54; L 2.58; V 1.09; I 2.73; R 2.31
D16: C 4.03; S 3.08; W 4.07; T 1.8; E 2.42
P22: H 2.4; I 2.08; W 2.56; M 2.15; E 2.13; V 1.83; T 1.66; L 1.3; D 2.37; N 1.38; C 1.85; Y 1.41; G 2.27; Q 1.58
Y2: S 2.71; F 2.2; M 1.73; L 2.68; A 1.43; R 3.3; V 3.27; E 2.9; I 1.94; N 4.07; G 3.27; D 3.19; Q 2.47; K 3.46; W 2.11; P 4.32; H 2.13; T 2.9
Q1: R 1.43; Y 1.69; M 1.66; K 1.92; F 2.53; T 1.84; D 3.16; C 1.52; W 2.21; E 1.93; S 2.04
Y15: P 1.9; G 2.6; S 3.18; M 2.79; C 2.46; A 2.75; F 1.83; L 2.69; T 2.82; R 3.05; H 3.13; I 1.81; N 2.65; E 3.18; W 2.25; Q 2.95
Y19: R 1.59; Q 3; I 1.79; F 2.11; N 2.62; K 1.71; C 2.13; T 3.2; P 2.32; W 4.22; V 4.09; S 2.14; E 3.03; G 3.72; D 3.32; H 2.45; L 2.1; M 1.9; A 2.49
T14: L 1.28; K 1.76; V 1.5; Q 3.12; A 2.1; E 2.2; C 2.54; P 2.53; W 1.43; R 2.51; H 2.73; F 1.73; N 2.36
G6: V 1.97; P 3.01; D 1.89; K 2.06; T 1.85; L 2.51; A 3.02; W 1.88; I 1.72; F 2.94; N 2.18; Y 2.5; C 2.26; Q 1.91; R 2.03
E5: Y 2.03; N 3.15; P 2.57; F 1.72; T 2.02; C 1.96; H 2.91; V 1.21; G 2.85; S 1.92
